Results: the DeepSol protein solubility set

Assay: soluble on expression in E. coli; label from the status in PepcDB or PDB records
For “MNDIWWQTYGEGNCHLVLLHGWGLNAEVWHCIREELGSHFTLHLVDLPGYGRSSGFGAMTLEEMTAQVAKNAPDQAIWLGWSLGGLVASQMALTHPERVQALVTVASSPCFSAREGWPGIKPEILGGFQQQLSDDFQRTVERFLALQTLGTETARQDARTLKSVVLAQPMPDVEVLNGGLEILKTVDLREALKNVNMPFLRLYGYLDGLVPRKIVPLLDTLWPHSTSQIMAKAAHAPFISHPAAFCQALMTLKSSL”, the “soluble on expression in E. coli” value was “not soluble”.
With “MNDKEKIYNQLHHDAPIQIMPAPENLFVEYIEDGEVWYSPVVCIALSKAHNINFYDSDDVGCIDKAATCSIKKFNPETGEFEQFSKMAQKEITQ” the “soluble on expression in E. coli” value was “not soluble”.
In the case of “MNDRLCFEVHDNKGYFVFPDTWFGPLLGEFEEVLDAYDADEISETSYINKLRRLAQREPDFIDIHAHLAYAFLEQNAPRKALNAALKGLAAGNRIIPESFCGEIIWMHPENRPYLRALYAAILANVHLQRHQDAVMLTDKILAYNPEDNQGARWLLGSELLRTGDHERAFSVLKEHADEFSPYWYELGLLHFLNGEHVKAATAFRHGFATNTYIAEMLCGNLHPFPLAVWHDFSGSLDTAEDYYATYSPLWGQYPEALLFVNWLYNHSSVLHERSEIIKCAEMLIQEDDFEICESILRQQEHLWKRIDKTLSEEIVQKCRNMNGEYIWPWILPFSAAGMKHSSIQYQMAGDPLEHHHHHH”, the “soluble on expression in E. coli” value was “soluble”.
With “MNDSTCPRPCLMKLDLQSSTNKLAFLKDNWPSFGQIESIDRLSETELRCTLCLLDVVLAALAKDECFCPNREIIRLVLTRTYVQNRCELCETEEIRSKLMKGFCTWEKKNGLSRKNEIRRRGISVFYGAILRMLSKVNGKQE” the “soluble on expression in E. coli” value was “not soluble”.
For “MNFLSQRYTGKSLHPDETKCYKNFTQTAQKLTHRLAESINHYVNHIDCVINTNLYNRLLAEKKESNHMIYKERETWLEAILNTLPDHVFILDESGRYIESFGGTHHSKTFNAERYIGLQLSDVLSPTKADELMGFIFDVMQDNETKVVKYNLSLHDHLLLPIEELEALENPEEMWFEAIIKPVNAPENANKLVIWSVRDITKTHLLEQRLK”, the “soluble on expression in E. coli” value was “not soluble”.
In the case of “MNFRLSEEHEMLRKMVREFAENEVAPTAAERDEEERFDRGIFNKMAELGLTGIPWPEEYGGIGSDYLAYVIAVEELSRVCASTGVTLSAHISLASWPIYKFGNEEQKQKYLRALATGEKLGAYALSEPGAGSDVASMKTRAVKDGDHYILNGSKVWITNGGEAEIYVVFAVTDPEKRHKGISAFIVEKGTPGFSFGKKEKKLGIRSSPTTELIFEDCRIPKENLLGQEGEGFKIAMMTLDGGRNGIAAQAVGIAQGALDAAVDYAKQRVQFGKPIIEQQGVAFKLADMATAIEAARLLTYQAAWLESNGLPYGKASAMAKLFAGDTAMKVTVEAVQIFGGNGYTKDYPVERFMRDAKITQIYEGTQEIQRLVISRMLTRN”, the “soluble on expression in E. coli” value was “soluble”.
For “MNGIKTGLGITPGEHIISADSALSRNIRQCFCLSCHGRLILQTDAQGAWFEHDLYALSEQQKAACVVLNPEKSHPYIEDMEMFLSPLPVVLEWHCMMCEQFFHGKKFCEACGTGIYCRAVCTKSVYSYQPDLFQDCGGAST”, the “soluble on expression in E. coli” value was “soluble”.
For “MNGNGENGTDEKQKLLSVVGVVSEEVVEMNRVSSARFQVSKTDEDEKTSDDNLRKLKSGSEPPPPTQNHEAVTLVTRKMSATGRFMVTSDTNPGQLVAEVADELGIDVPIDPPAEKSPASRAKGVHFSVGDKDSGSMSEDGDEKRNITHENQTTFNMKSWRNMKTIEHPPIIDFYRNSIDTDGVFNRPSMAQLIHGKEHKEQDLGFEELNKKPETAQLAKVIGLNLLSKEDQERRDFERKKRINQQKLQEMHKMHKETYNFR”, the “soluble on expression in E. coli” value was “not soluble”.
In the case of “MNGYVYLVGAGPGDEGLITKKAIECLKRADIVLYDRLLNPFFLSYTKQTCELMYCGKMPKNHIMRQEMINAHLLQFAQEGKIVVRLKGGDPSIFGRVGEEAETLAAANIPYEIVPGITSSTAASSYAGIPLTHRNYSNSVTLLTGHAKGSLTDHGKYNSSHNSDTIAYYMGIKNLPTICKNLRQAGKKEDTPVAVIEWGTTGKQRVVTGTLSTIVSIVKNENISNPSMTIVGDVVSLRDQIAWKEHKPLHGKKVLFTSATNKTSVMKQKLQEAGAEIYQIPTFKKEEYTLTLEQIIEIFNVNRLVFCSAESVEILMQSCSKYKKDIRSLQAELQHMNVATQEKLMQYGLLSKEAKFSSDTTVYLGRNINRIAFIQEKIGAGSYMMTHKYTIDHRFDEVHSRMLSEFLWDSIVFEGRASIDTFLAEVKRLGFLDIVTLPFSYTDVPTLRYANKVGFHNIDHQLQETLMQKDMVRQ”, the “soluble on expression in E. coli” value was “not soluble”.
In the case of “MNHAQSLYPLIERALLCPVLEDKLALAERLHRDWRAGMLARLASPAPYPLPEPGRPERPELVHPARVPKRSLSTRRGHGALLHAIAHIEFNAVNLALDAAWRFRDMPDEFVDDWLKVAAEEAGHFRLLQGRLAELGFSYGDFPAHDGLWAMCRKTDRDAMVRMALVPRVLEARGLDVTPGIQRRLAGIGDHASVAVLDVILRDEVGHVLIGNRWFVRLCRERGLEPQATFRGLLEQHAMQLHPGDYNLDARAAAGFFADELEALARLTESVSDGRLEHHHHHH”, the “soluble on expression in E. coli” value was “soluble”.
For “MNIAVASGKGGTGKTTVAVNLAASYAMQGLPVTLVDCDVEEPNAHLFVDARWQVRSLCGVPVPAIDPDRCLGESCRRCVEACRFKALAMLGGELLVFAELCHGCGLCELVCPAGVVGTASRPVGEVRQGVASCHVHGETCHMAFRDGVLRVGEAMATPLIKAVKRTAEDANATSHAGYGVTLWDCPPGTACATINALDEADFVVLVAESTAFGLHDLRLAVGLVCHLGLPHGIVINRFGMGDDRVATWAASEGIDVLGRLPFSLEAASRNAGGGLLLDASHDLEAAYRDLGARLLEKGIRSLEHHHHHH”, the “soluble on expression in E. coli” value was “not soluble”.
For “MNIFNPNHDRKAIVIFSGGQDSTTCLFQAIAEYGKENIEAITFQYGQRHAIELEKARTIAQDLGIKQTLIDTSVMKAITHNALMDEQAHIEQKENELPNTFVDGRNALFLLYAAIYAKGQGIQDIITGVCETDFSGYPDCRDVFIKSMNVTLNLAMDYPIPISKTPLMYLTKAQTWQLADEFRRIRLCTKTYSHLL”, the “soluble on expression in E. coli” value was “not soluble”.
With “MNILLAGGSGLIGQELVRGMGEEHHYTVLGRDKDAIQKIFTTKASSLSWDELNTQDASRFDAVINLCGVNIAISRWTPKIKEEIISSRVQTTENLLHWILQQNAKPRFYCANAVGIYGLQENGDATDLTEDTAINWEHPKDYLSEVGIRWQQALQKAEEAGLPVTSTRFGVVLKKGKGFLGKLYPSFICGLGSTIGDGRQYLSWIDSEDLVNAYRFLLNHPEITGPVNVTSPNPCMQREFAKAFAKSLHRPLLLWTPAFIIHLLFGEMGDCLINHGQKVKPKRLLEAGFEFKWPDIEKALKHQYSAILEHHHHHH” the “soluble on expression in E. coli” value was “soluble”.
In the case of “MNILLTSATGYLGRAIAAAIQSKGHRVTALARSAATAQRLEAAGIQPCRGDLTDAVALQQAAAQADAVIHTAATNDAAMGLVDRQAVKTLLAAIAGTQKPFLYTSGLWVMGNTGATVADETFPLNPPALVAWRPAVEALVLSAADQGVRSIVIRPALVYGRGGGLLPMLMQAGQSQGAVPVIGAGDNAWSFIHIDDLAALYVAAIEQAPARTLLIGASGESVSMQQVALTIAKTLGLGDRLQHLTLEEARAIWGDLADALTLDQRVSGDRARQLLHWQPVAPGVFQELTQGSYATKAIAALEHHHHHH”, the “soluble on expression in E. coli” value was “not soluble”.
For “MNILRNIILFGWMAIACTAFAQDRNADKVERPNTKKINFGIKAGFNSSMFMVSELKIKDVTIDEVQNNYKIGYFGAIFMRFNIKKHFIQPEASYNVSKGEITFDKLGSQHPAIEPDYASVQSVLHSIDFPILYGYNVVKKGPYGMSIFAGPKLRYLWGKQNEITFTNFDQKGIHEKLYPLNVSVVIGVGVNISRIFFDFRYEQGIGNISKSIVYDNINSDGSTGVSPIIFRRRDSALSFSFGFIL”, the “soluble on expression in E. coli” value was “not soluble”.
For “MNIQCKRVYDPAEQSDGYRILVDRLWPRGIKKTDLALDEWDKEITPSTELRKAFHGEVVDYATFREQYLAELAQHEQEGKRLADIAKKQPLTLLYSAKNTTQNHALVLADWLRSL”, the “soluble on expression in E. coli” value was “soluble”.
For “MNITATSLDSEDELSIKYMDAVDNINILKRYGCDIQHEVDVHTMSFDNSLSLQRYDRIVFNFPHAGSRFFGRELSSRAIESHKELVRGFLENAKEMLEEDGEIHITHKTTYPFSDWGIKKLGKGEGLKLLKKSKFELSHYPGYITKRGSGGRRSDDYFPVDVDPCDLKGFEVLEIYHPSMSDGFVNSVMVARKLTDRLIKYEWCTGTRSLNSLKKTRQTEPDQFNKREINRSGPGQVAEEEEEVVAVMMMMTSLGGGAGGGGGGGGSGGGRFVTYPPPLSVPPSAPQSPNFSGGLRSQPSFLVEQEKYLSELLAERHKLTPFLPVLPHVCRLMNQEILRVTTLLENALSQSRFDHPSPLASGGIFQNSRADMNGWASQFPSERSVSSSPAPNWLNSPGSSSGLIVKRTIRVDIPVDKYPNYNFVGRLLGPRGNSLKRVEASTDCRVLIRGRGSIKDPIKEDMMRGKPGYEHLNEPLHILVEAELPIEIVDARLMQAREILDDLLTPVEETHDFYKKQQLRELALLNGSLREEGSPMSGSISPYNSLGMKRAKTRG”, the “soluble on expression in E. coli” value was “soluble”.
For “MNITIVLGDKIPSIKYGGTQRVMWYLGKELNKRGHKVTFIAGKGSSCPFAKVIELDPSVNLNTQIPTDADIVHFNIPVPEGITKPHLLTIHGNGIPANADRNIVFVSRNHAQRLGSESFVYNGLDWDDYGPANLTLSRKNYHFLGKAAWKVKNIKGAIAVVQSIKNAQLDVLGGYRLNLKMGFRFTWNPRIHFHGMVDDSKKKVIIEQSKGLIFPVTWHEPFGLAITESLYFGAPVFGTPYGALPELVSPEVGFLTAHGQEMAEHIQSAQYSPKVCHEYARDLFNSSVMAEAYLKKYETVLNGEPLNKEVPHIIDIARRLPWD”, the “soluble on expression in E. coli” value was “not soluble”.
For “MNIVCIDTCFSSVAITAQGNAGTFTSVFTPAKARHSAILIPAIETAVKQAGFSINETDVLVCPQGPGGFTGLRLAYSTAKAIQLQTNARFFCVSILEALCSKYGDKNQFLSVIDAKRDCFYVQAFENKKPISEAFDIRAEDALKLIDKNKKTIICGFGTEKFNEEAGASIESNNITLIEADKETLSKTLLDCFLTNKNCKKVEDHEGPVYIRKSDAEY”, the “soluble on expression in E. coli” value was “not soluble”.
For “MNKAAQKVLKLLGHTEIARVNSSCGAEQEYFLVDSNFAHQRPDLLLAGRTLFGKSPAKGQEFDDHYFGAIPERVQIFMQDVEAQLYKLGIPAKTRHNEVAPGQFEIAPVFEAANVASDHQQLIMTTLKTTAKKHGFMCLLHEKPFAGINGSGKHVNWSVGNATQGNLLDPGDSPHDNAQFLVFCGAVIRGVHKFGPLMRAVIANASNDHRLGANEAPPAIMSVYLGSQLEEVFEQIKNGTVSESKKKGVMDLGVAVLPELTKDAGDRNRTSPFAFTGNRFEFRAVGSSQSVSGPLVALNTILADSLGWIGDRLESELAKGLEISEAILTVLKEIMNDHGSVIFGGNGYSEEWHREAVQERGLRNLPTTADALPVLKEDEVVALFDQLKVLTPIELESRFEVYAEQYIKSIEV”, the “soluble on expression in E. coli” value was “not soluble”.
In the case of “MNKEEQYLLFALSAPMEILNQSCKPAHDSPKMYTGIKEFDLSSSWGINNRDDLIQTIYQMTDDGHANDLAGLYLTWQRSSPEEWKALIAGGSERGLIYTQFVAQTAMCCGEGGIKAWDYVRMGFLSRAGVLNNWLTEEESLWLQSRVYARAHHYYHSWMHYFSAYSLGRLYWQSSQCEDNASLREALTLYKYDSAGSRMFEELAAGSDRFYATLPWQPLTVQPECPVTLKDVSDL”, the “soluble on expression in E. coli” value was “not soluble”.
